Experimental data from US20190142971A1, “FORMULATION AND DELIVERY OF MODIFIED NUCLEOSIDE, NUCLEOTIDE, AND NUCLEIC ACID COMPOSITIONS” (ModernaTX, Inc., priority 2013, published 2019).

Test system: non-human primates (cynomolgus monkey)
Test: Example 22: NHP hematology: neutrophils, reticulocytes, HGB, HCT, RBC (Tables 40-44)
Assay type: in vivo
Protocol: LNP formulations, shown in Table 33 (above), were administered to non-human primates (NHP) (cynomolgus monkey) (n=2) as intravenous injection (IV). The NHP were administered a single modified mRNA IV dose of 0.5 mg/kg, 0.05 mg/kg or 0.005 mg/kg of G-CSF or EPO in a dose volume of 0.5 mL/kg. The NHPs were bled before dosing with the modified mRNA LNP formulations to determine protein expression in the serum and a baseline complete blood count. After administration with the G-CSF modified mRNA formulation the NHP were bled at 8, 24, 48 and 72 hours to determined protein expression. After administration with the EPO modified mRNA formulation the NHP were bled at 8, 24, 48, 72 hours and 7 days to determined protein expression.
Samples collected from the NHPs after they were administered with G-CSF or EPO modified mRNA formulations were analyzed by ELISA to determine protein expression. Neutrophil and reticulocyte count was also determined pre-dose, 24 hours, 3 days, 7 days, 14 days and 18 days after administration of the modified G-CSF or EPO formulation.

[1] = 0.05 mg/kg, 14/18 days, Female NHP
[2] = 0.05 mg/kg, 14/18 days, Male NHP
[3] = 0.05 mg/kg, 24 hours, Female NHP
[4] = 0.05 mg/kg, Pre-dose, Female NHP
[5] = 0.5 mg/kg, 14/18 days, Female NHP
[6] = 0.5 mg/kg, 14/18 days, Male NHP
[7] = 0.5 mg/kg, 24 hours, Female NHP
[8] = 0.5 mg/kg, Pre-dose, Female NHP

B1: EPO: modified mRNA encoding human erythropoietin, SEQ ID NO: 7, Cap1, fully modified with 5-methylcytosine and pseudouridine; LNP NPA-060-1 in Examples 17-22 (nucleic acid)
chain: GGGAAAUAAGAGAGAAAAGAAGAGUAAGAAGAAAUAUAAGAGCCACCAUGGGAGUGCACGAGUGUCCCGCGUGGUUGUGGUUGCUGCUGUCGCUCUUGAGCCUCCCACUGGGACUGCCUGUGCUGGGGGCACCACCCAGAUUGAUCUGCGACUCACGGGUACUUGAGAGGUACCUUCUUGAAGCCAAAGAAGCCGAAAACAUCACAACCGGAUGCGCCGAGCACUGCUCCCUCAAUGAGAACAUUACUGUACCGGAUACAAAGGUCAAUUUCUAUGCAUGGAAGAGAAUGGAAGUAGGACAGCAGGCCGUCGAAGUGUGGCAGGGGCUCGCGCUUUUGUCGGAGGCGGUGUUGCGGGGUCAGGCCCUCCUCGUCAACUCAUCACAGCCGUGGGAGCCCCUCCAACUUCAUGUCGAUAAAGCGGUGUCGGGGCUCCGCAGCUUGACGACGUUGCUUCGGGCUCUGGGCGCACAAAAGGAGGCUAUUUCGCCGCCUGACGCGGCCUCCGCGGCACCCCUCCGAACGAUCACCGCGGACACGUUUAGGAAGCUUUUUAGAGUGUACAGCAAUUUCCUCCGCGGAAAGCUGAAAUUGUAUACUGGUGAAGCGUGUAGGACAGGGGAUCGCUGAUAAGCUGCCUUCUGCGGGGCUUGCCUUCUGGCCAUGCCCUUCUUCUCUCCCUUGCACCUGUACCUCUUGGUCUUUGAAUAAAGCCUGAGUAGGAAG
modifications: Cap1, 5-methylcytosine, pseudouridine
B1 was tested, and the “Female NHP HGB” value (0.05 mg/kg IV, Pre-dose) was 133 g/L, the “Female NHP Neutrophils” value (0.05 mg/kg IV, Pre-dose) was 2.15 10^9/L and the “Male NHP HGB” value (0.05 mg/kg IV, Pre-dose) was 133 g/L. For the same molecule, the “Male NHP Neutrophils” value (0.05 mg/kg IV, Pre-dose) was 0.97 10^9/L, the HCT [1] was 0.43 L/L and the RBC [1] was 5.57 10^12/L. For the same molecule, the HCT [2] was 0.46 L/L, the RBC [2] was 5.57 10^12/L and the HCT [3] was 0.39 L/L. For the same molecule, the RBC [3] was 5.18 10^12/L, the HCT (0.05 mg/kg, 24 hours, Male NHP) was 0.43 L/L and the RBC (0.05 mg/kg, 24 hours, Male NHP) was 5.25 10^12/L. For the same molecule, the HCT (0.05 mg/kg, 3 days, Female NHP) was 0.4 L/L, the RBC (0.05 mg/kg, 3 days, Female NHP) was 5.16 10^12/L and the HCT (0.05 mg/kg, 3 days, Male NHP) was 0.38 L/L. The RBC (0.05 mg/kg, 3 days, Male NHP) was 4.81 10^12/L, the HCT (0.05 mg/kg, 7 days, Female NHP) was 0.41 L/L and the RBC (0.05 mg/kg, 7 days, Female NHP) was 5.31 10^12/L. For the same molecule, the HCT (0.05 mg/kg, 7 days, Male NHP) was 0.45 L/L, the RBC (0.05 mg/kg, 7 days, Male NHP) was 5.37 10^12/L and the HCT [4] was 0.43 L/L. For the same molecule, the RBC [4] was 5.84 10^12/L, the HCT (0.05 mg/kg, Pre-dose, Male NHP) was 0.45 L/L and the RBC (0.05 mg/kg, Pre-dose, Male NHP) was 5.57 10^12/L. The “Female NHP HGB” value (0.5 mg/kg IV, 14/18 days) was 133 g/L, the “Female NHP Neutrophils” value (0.5 mg/kg IV, 14/18 days) was 2.36 10^9/L and the “Male NHP HGB” value (0.5 mg/kg IV, 14/18 days) was 146 g/L. For the same molecule, the “Male NHP Neutrophils” value (0.5 mg/kg IV, 14/18 days) was 7.16 10^9/L, the “Female NHP HGB” value (0.5 mg/kg IV, 24 hours) was 108 g/L and the “Female NHP Neutrophils” value (0.5 mg/kg IV, 24 hours) was 11.85 10^9/L. For the same molecule, the “Male NHP HGB” value (0.5 mg/kg IV, 24 hours) was 127 g/L, the “Male NHP Neutrophils” value (0.5 mg/kg IV, 24 hours) was 7.5 10^9/L and the “Female NHP HGB” value (0.5 mg/kg IV, 3 days) was 120 g/L. For the same molecule, the “Female NHP Neutrophils” value (0.5 mg/kg IV, 3 days) was 5.22 10^9/L, the “Male NHP HGB” value (0.5 mg/kg IV, 3 days) was 126 g/L and the “Male NHP Neutrophils” value (0.5 mg/kg IV, 3 days) was 11.07 10^9/L. The “Female NHP HGB” value (0.5 mg/kg IV, 7 days) was 134 g/L, the “Female NHP Neutrophils” value (0.5 mg/kg IV, 7 days) was 2.85 10^9/L and the “Male NHP HGB” value (0.5 mg/kg IV, 7 days) was 140 g/L. For the same molecule, the “Male NHP Neutrophils” value (0.5 mg/kg IV, 7 days) was 11.8 10^9/L, the “Female NHP HGB” value (0.5 mg/kg IV, Pre-dose) was 123 g/L and the “Female NHP Neutrophils” value (0.5 mg/kg IV, Pre-dose) was 1.82 10^9/L. The “Male NHP HGB” value (0.5 mg/kg IV, Pre-dose) was 134 g/L, the “Male NHP Neutrophils” value (0.5 mg/kg IV, Pre-dose) was 9.72 10^9/L and the HCT [5] was 0.46 L/L. For the same molecule, the RBC [5] was 5.72 10^12/L, the HCT [6] was 0.48 L/L and the RBC [6] was 5.83 10^12/L. For the same molecule, the HCT [7] was 0.36 L/L, the RBC [7] was 4.69 10^12/L and the HCT (0.5 mg/kg, 24 hours, Male NHP) was 0.4 L/L. The RBC (0.5 mg/kg, 24 hours, Male NHP) was 5.12 10^12/L, the HCT (0.5 mg/kg, 3 days, Female NHP) was 0.39 L/L and the RBC (0.5 mg/kg, 3 days, Female NHP) was 5.15 10^12/L. The HCT (0.5 mg/kg, 3 days, Male NHP) was 0.41 L/L, the RBC (0.5 mg/kg, 3 days, Male NHP) was 5.13 10^12/L and the HCT (0.5 mg/kg, 7 days, Female NHP) was 0.45 L/L. The RBC (0.5 mg/kg, 7 days, Female NHP) was 5.68 10^12/L, the HCT (0.5 mg/kg, 7 days, Male NHP) was 0.45 L/L and the RBC (0.5 mg/kg, 7 days, Male NHP) was 5.55 10^12/L. For the same molecule, the HCT [8] was 0.4 L/L, the RBC [8] was 5.26 10^12/L and the HCT (0.5 mg/kg, Pre-dose, Male NHP) was 0.44 L/L. For the same molecule, the RBC (0.5 mg/kg, Pre-dose, Male NHP) was 5.43 10^12/L, the “reticulocytes 3 days to 14/18 days after dosing relative to 24 hours after dosing” value (all dose groups) was “increase in reticulocytes” and the “effect on hemoglobin (HGB), hematocrit (HCT) and red blood cell (RBC) count” value (cynomolgus monkey, in vivo) was “had an effect”.
